The record followed here is US20210101970A1 (Pfizer, published 2021).

B1: Humanized 11G2 151/152 (antibody, human IgG1, V domains shown)
VH: EVQLVESGGGLVKPGGSLRLSCAASGFTFTDFYMSWVRQAPGKGLEWLGFIRNKANGYTTEYSAPVKGRFTISRDDSKNTLYLQMNSLKTEDTAVYYCVRVYGSTLHYWGQGTLVTVSS
VL: DIQMTQSPSSLSASVGDRVTITCRASESVEYHGTSLMHWYQQKPGKAPKLLIYAASNVESGVPSRFSGSGSGTDFTLTISSLQPEDFATYYCQQSRKVPWTFGQGTKVEIK
notes: also called h11G2 VH (XC152)/VL (XC151)
B2: Humanized 11G2 153/156 (antibody, human IgG1, V domains shown)
VH: B1 VH with K13Q, A24T, L48V, P65S, D76N, S77A, T80S, K89R, T90A
VL: B1 VL with Y91F
notes: also called h11G2 VH (XC156)/VL (XC153)
B3: Humanized 11G2 153/155 (antibody, human IgG1, V domains shown)
VH: B1 VH with K13Q, L48V, P65S, D76N, S77A, T80S, K89R, T90A, V99A
VL: B1 VL with Y91F
notes: also called h11G2 VH (XC155)/VL (XC153)
B4: Humanized 11G2 154/157 (antibody, human IgG1, V domains shown)
VH: B1 VH with K13Q, A24T, L48V, P65S, D76N, S77A, N79S, T80S, K89R, T90A
VL: B1 VL
notes: also called h11G2 VH (XC157)/VL (XC154)
B5: Afucosyl Chimeric 11G2 (antibody, human IgG1, kappa, V domains shown)
VH: EVKLVESGGGLVQPGGSLRLSCATSGFTFTDFYMSWVRQPPGRALEWLGFIRNKANGYTTEYSASVKGRFTISRDNSQSILYLQMNTLRAGDSATYYCVRVYGSTLHYWGQGTILTVSS
VL: DVVVTQSPDSLAVSLGQRATISCRASESVEYHGTSLMHWYQQKPGQPPKLLIYAASNVESGVPARFSGSGSGTDFSLNIHPVEEGDIAMYFCQQSRKVPWTFGGGTKLEIKR
modifications: afucosylated Fc glycan (Asn297)
notes: made in Potelligent CHOK1SV cells
B6: Humanized 41A10 142/147 (antibody, human IgG1, V domains shown)
VH: EVQLVESGGGLVQPGGSLRLSCAASGFTFRSYGMSWVRQAPGKGLEWVATISSGGTYTFYPDILKGRITISRDNAKNSLYLQMNSLRAEDTAVYYCARRGEDYRGALEHWGQGTLVTVSS
VL: DIQMTQSPSSLSASVGDRVTITCSASSSVNYIHWYQQKPGKAPKRLIYETSRLASGVPSRFSGSGSGTDYTLTISSLQPEDFATYYCQQWSSNPLTFGQGTKVEIK
notes: also called h41A10 VH (XC147)/VL (XC142)
B7: Humanized 41A10 142/148 (antibody, human IgG1, V domains shown)
VH: B6 VH with I68F
VL: B6 VL
notes: also called h41A10 VH (XC148)/VL (XC142)
B8: mouse 11G2 (antibody, V domains shown)
VH: B5 VH
VL: DVVVTQSPDSLAVSLGQRATISCRASESVEYHGTSLMHWYQQKPGQPPKLLIYAASNVESGVPARFSGSGSGTDFSLNIHPVEEGDIAMYFCQQSRKVPWTFGGGTKLEIK
notes: mouse hybridoma mAb; also called 11G2 (hybridoma)
B9: mouse 5H7 (antibody, V domains shown)
VH: B5 VH with G16D
VL: B8 VL with I87V, A88S, Y90F
notes: mouse hybridoma mAb; also called 5H7 (hybridoma)
B10: mouse 41A10 (antibody, V domains shown)
VH: EVQLVESGGDLVKPGGSLKLSCAASGFTFRSYGMSWVRQTPDKRLEWVATISSGGTYTFYPDILKGRITISRDNAKNTLYLQMSNLKSEDTAMYYCARRGEDYRGALEHWGQGTSVTVSS
VL: QIVLTQSPAVMSASPGEKVTMTCSASSSVNYIHWYQQKSGTSPKRWIYETSRLASGVPVRFSGSGSGTSYSLTISTMEAEDAATYYCQQWSSNPLTFGAGTKLELK
notes: mouse hybridoma mAb; also called 41A10 (hybridoma)
B11: Afucosyl Chimeric 41A10 (antibody, human IgG1, kappa, V domains shown)
VH: B10 VH
VL: QIVLTQSPAVMSASPGEKVTMTCSASSSVNYIHWYQQKSGTSPKRWIYETSRLASGVPVRFSGSGSGTSYSLTISTMEAEDAATYYCQQWSSNPLTFGAGTKLELKR
modifications: afucosylated Fc glycan (Asn297)

As usually defined, the EC50 is the concentration giving half of the maximal effect.

Changes are numbered by the printed parent chain.

The target in one test is T1, human CXCR5 (human, UniProt P32302 1-372).
T1 construct: also called hCXCR5; C-X-C chemokine receptor type 5
T1 sequence: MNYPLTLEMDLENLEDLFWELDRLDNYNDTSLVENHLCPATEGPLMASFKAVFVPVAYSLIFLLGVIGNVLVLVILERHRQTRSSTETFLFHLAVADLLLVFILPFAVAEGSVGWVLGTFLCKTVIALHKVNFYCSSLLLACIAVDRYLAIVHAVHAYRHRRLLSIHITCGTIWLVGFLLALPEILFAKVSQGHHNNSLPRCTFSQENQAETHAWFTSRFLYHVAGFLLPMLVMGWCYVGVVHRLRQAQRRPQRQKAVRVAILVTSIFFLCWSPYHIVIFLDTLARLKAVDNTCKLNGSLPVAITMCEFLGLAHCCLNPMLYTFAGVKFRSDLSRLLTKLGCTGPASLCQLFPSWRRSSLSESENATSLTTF
Put plainly: flow cytometry, human PBMC B cells. Here is the method:
(§1) The apparent affinity for cell surface CXCR5 of chimeric and humanized CXCR5 fucosylated and afucosylated antibodies was assessed. More specifically, to determine the apparent affinity of chimeric and humanized CXCR5 antibodies to CXCR5-expressing cells, cell binding experiments were performed on human and cynomolgus monkey peripheral blood mononuclear cells (PBMCs) and human tonsillar mononuclear cells (TMCs). The apparent affinity of CXCR5 mab binding to CXCR5+ cells (B cells, bona fide Tfh cells, and circulating Tfh-like cells) was calculated as the EC50 of equilibrium binding titration curves in which the geometric mean fluorescence intensity (gMFI) of the antigen binding population was quantified by flow cytometry.
(§2) Following isolation, PBMCs were plated at a density of 1.0×10⁵ cells per well and CD4+ TMCs were plated at a density of 2.0×10⁵ cells per well in isolation buffer (PBS containing 1% FBS and 1 mM EDTA) in 96 well U-bottom plates. The plates were then centrifuged at 1500 rpm for 5 minutes at room temperature. PBMCs and CD4+ TMCs were resuspended in Fluorescence-activated cell sorting (FACS) buffer (PBS containing 1% FBS) containing human crystallized fragment Fc block (2 μL per well; Biolegend) and 4-fold serial dilutions of the antibodies (11-point dilution series, beginning at 5000 ng/mL for PBMCs and 312.5 ng/mL for CD4+ TMCs) and incubated on ice for 2 hours. PBMCs and CD4+ TMCs were then washed with FACS buffer 3 times and resuspended in 50-100 μL of FACs buffer containing fluorescent-conjugated antibodies for staining lymphocyte subsets and a fluorescent-conjugated secondary antibody against human Ig to detect CXCR5 monoclonal antibodies (mAbs). After incubation for 30 minutes at 4° C., PBMCs and CD4+ TMCs were washed with FACS buffer 2 times and resuspended in 125 μL of 0.5% paraformaldehyde (PFA) in PBS. Plates were stored at 4° C. until analysis by flow cytometry (BD LSRFortessa™ Cell Analyzer, BD Biosciences, Franklin Lakes, N.J.).
(§3) The cell binding titration curves were generated by plotting the gMFI of the antigen binding population against the log of CXCR5 antibody concentration. EC₅₀ values were determined using GraphPad Prism® (version 6.0, GraphPad Software, Inc, San Diego, Calif.) nonlinear-regression curve fits and a sigmoidal log of agonist dose-response model, according to the following equation
Regarding B1, the EC50 was determined as 13.1 pM.
Same read-out and setting: next, B2: 8.88 pM; B3: 7.79 pM.
Still for that read-out and setting: next, B4: 19.1 pM; B5: 8.09 pM.
On the same count and under the same terms, to B6 belongs 153 pM.
Molecule B7 returned a concentration for a half-maximal effect (EC50) of 152 pM.

In the next test the target is T1, human CXCR5. Put plainly: flow cytometry, human tonsil Tfh cells. On the procedure:
Following centrifugation, red blood cell lysis was performed on the pellet using an ammonium chloride lysis buffer. Platelets were removed using a low speed centrifugation (200×g) for 10 minutes in Phosphate-Buffered Saline (PBS)/2% FBS/2 mM Ethylenediaminetetraacetic acid (EDTA). CD4+ T cells were purified out of the TMC mixture using an EasySep™ Human CD4+ T Cell Enrichment Kit, according to the manufacturer's instructions ([…] Technologies, Vancouver, BC, Canada).
as §2, §3
(Flow cytometry measures light scatter and fluorescence of single cells or particles in a stream.)
On to B1, for which the concentration giving a half-maximal response (EC50) was found to be 3.33 pM.
Still for that read-out and setting: to B2 belongs 3.23 pM.
Still for that read-out and setting: to B3 belongs 4.82 pM.
On the same count and under the same terms, next, B4: 7.24 pM; B5: 45.6 pM.

Another test deals with T1, human CXCR5. Put plainly: flow cytometry on Raji cells, gMFI titration. Here is the method: The apparent affinity of antibody binding to Raji cells was calculated as the EC₅₀ of equilibrium binding titration curves in which the geometric mean fluorescence intensity (gMFI) of the antigen binding population was quantified by flow cytometry and the results are shown in Table 2.
As to B8, the half-maximal effective concentration (EC50) amounted to 968 pM.
Same read-out and setting: to B9 belongs 1010 pM; to B10, 805 pM.

A further test addresses T2, cynomolgus monkey CXCR5 (cynomolgus monkey, UniProt P32302 1-372 (human entry)).
T2 construct: also called cynoCXCR5; NHP CXCR5
T2 chain: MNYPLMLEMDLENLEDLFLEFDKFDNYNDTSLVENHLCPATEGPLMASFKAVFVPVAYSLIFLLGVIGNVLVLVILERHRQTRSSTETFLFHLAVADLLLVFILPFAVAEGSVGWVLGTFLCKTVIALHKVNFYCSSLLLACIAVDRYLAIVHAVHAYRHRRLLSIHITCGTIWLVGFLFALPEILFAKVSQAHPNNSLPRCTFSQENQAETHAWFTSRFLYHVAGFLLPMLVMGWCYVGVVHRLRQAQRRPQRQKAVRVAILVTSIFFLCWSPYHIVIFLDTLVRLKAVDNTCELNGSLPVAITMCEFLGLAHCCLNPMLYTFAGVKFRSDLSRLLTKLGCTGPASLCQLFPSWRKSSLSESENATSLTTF
Put plainly: flow cytometry, cynomolgus PBMC B cells. On the procedure: as §1, §2, §3
In turn, B1 displayed an EC50 of 10.1 pM.
The same measure, in the same setting: next, B2: 7.06 pM; B3: 7.03 pM.
Still for that read-out and setting: next, B4: 8.65 pM; B6: 2050 pM.
The same measure, in the same setting: to B7 belongs 1960 pM.

In a further test the target is T1, human CXCR5. Kind of test: cell-based or functional assay.
For the molecule B1, the “ADCC Activity Average EC50, Human B Cells” value worked out at 377 pM.
Same read-out and setting: next, B2: 568 pM; B3: 463 pM.
Same read-out and setting: to B4 belongs 517 pM.
As for B5, the “ADCC Activity Average EC50, Human B Cells” value came out at 4.39 pM and the “ADCC Activity Average EC50, Human Tfh Cells” value was 0.07 pM.
Turning to B6, the “ADCC Activity Average EC50, Human B Cells” value was determined as 1240 pM.
As for B7, the “ADCC Activity Average EC50, Human B Cells” value worked out at 1110 pM.
On the same count and under the same terms, to B11 belongs 54.5 pM.

For another test, the target named is T2, cynomolgus monkey CXCR5. Put plainly: cell-based or functional assay.
On to B1, for which the “ADCC Activity Average EC50, NHP B Cells” value stood at 43.6 pM.
Same read-out and setting: next, B2: 28.1 pM.
Regarding B3, the “ADCC Activity Average EC50, NHP B Cells” value is 20.7 pM.
Same read-out and setting: next, B4: 54 pM.

Another test concerns the target T1, human CXCR5. Kind of test: cell-based or functional assay. This is another data set of the same source.
Take B8: the “Ca2+ flux IC50” value was found to be 5930 pM.
The same measure, in the same setting: next, B9: 5560 pM; B10: 14700 pM.
